Data on seven molecules can be found in patent US20230050440A1 (Seagen, published 2023).

Where a chain is given by its changes, count along the chain named.

T1: murine FcγRIV expressed on CHO cells (mouse, UniProt A0A0B4J1G0 21-249)
T1 construct: also called mCD16 (the murine form of FcγRIVa)
T1 sequence: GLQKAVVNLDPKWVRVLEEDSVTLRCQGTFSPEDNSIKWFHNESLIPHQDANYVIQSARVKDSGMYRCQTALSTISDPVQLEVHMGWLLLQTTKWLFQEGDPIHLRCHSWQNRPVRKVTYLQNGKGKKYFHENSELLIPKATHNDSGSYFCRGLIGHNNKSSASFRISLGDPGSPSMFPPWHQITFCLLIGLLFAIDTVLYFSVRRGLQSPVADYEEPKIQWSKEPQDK

T2: human TIGIT expressed on cells (human, UniProt Q495A1 22-244)
T2 construct: HEK 293 cells stably expressing human TIGIT, primary human T cells or Jurkat effector cells; the cell is named under assay; also called Human TIGIT HEK
T2 sequence: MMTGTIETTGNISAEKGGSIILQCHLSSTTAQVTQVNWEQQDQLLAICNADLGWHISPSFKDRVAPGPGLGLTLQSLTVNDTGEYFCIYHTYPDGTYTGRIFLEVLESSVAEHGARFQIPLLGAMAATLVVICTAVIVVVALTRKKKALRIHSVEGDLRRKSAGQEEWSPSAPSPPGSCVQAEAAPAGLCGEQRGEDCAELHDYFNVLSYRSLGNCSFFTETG

T3: monomeric human TIGIT (Sino Biological 10917-H08H) (human, UniProt Q495A1 22-138, biotinylated in the MSD-SET assay)
T3 construct: Bought protein; also called Human TIGIT monomer; Human TIGIT-His; not shown: His tag
T3 sequence: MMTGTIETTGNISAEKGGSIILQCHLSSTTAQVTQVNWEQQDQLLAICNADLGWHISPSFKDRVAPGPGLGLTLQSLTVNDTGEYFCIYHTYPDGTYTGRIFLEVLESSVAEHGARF

T4: recombinant dimeric human TIGIT-Fc (Acro Biosystems TIT-H5254) (human, UniProt Q495A1 22-141)
T4 construct: Bought protein; also called hTIGIT-Fc; not shown: Fc part of the bought fusion protein
T4 sequence: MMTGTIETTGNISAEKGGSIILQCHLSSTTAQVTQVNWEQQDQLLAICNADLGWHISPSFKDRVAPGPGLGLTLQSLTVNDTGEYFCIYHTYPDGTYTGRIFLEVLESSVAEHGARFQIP

B1: anti-TIGIT c13 mIgG2a LALA-PG (antibody)
heavy chain: QVQLVQSGAEVKKPGSSVKVSCKASGGTFSSYAISWVRQAPGQGLEWMGSIIPIFGTANYAQKFQGRVTITADESTSTAYMELSSLRSEDTAVYYCARGPSEVGAILGYVWFDPWGQGTLVTVSSAKTTAPSVYPLAPVCGDTTGSSVTLGCLVKGYFPEPVTLTWNSGSLSSGVHTFPAVLQSDLYTLSSSVTVTSSTWPSQSITCNVAHPASSTKVDKKIEPRGPTIKPCPPCKCPAPNAAGGPSVFIFPPKIKDVLMISLSPIVTCVVVDVSEDDPDVQISWFVNNVEVHTAQTQTHREDYNSTLRVVSALPIQHQDWMSGKEFKCKVNNKDLGAPIERTISKPKGSVRAPQVYVLPPPEEEMTKKQVTLTCMVTDFMPEDIYVEWTNNGKTELNYKNTEPVLDSDGSYFMYSKLRVEKKNWVERNSYSCSVVHEGLHNHHTTKSFSRTPGK
light chain: not shown
notes: also called LALA TIGIT
B2: anti-TIGIT clone 13 mIgG1 (antibody)
heavy: QVQLVQSGAEVKKPGSSVKVSCKASGGTFSSYAISWVRQAPGQGLEWMGSIIPIFGTANYAQKFQGRVTITADESTSTAYMELSSLRSEDTAVYYCARGPSEVGAILGYVWFDPWGQGTLVTVSSAKTTPPSVYPLAPGSAAQTNSMVTLGCLVKGYFPEPVTVTWNSGSLSSGVHTFPAVLESDLYTLSSSVTVPSSPRPSETVTCNVAHPASSTKVDKKIVPRDCGCKPCICTVPEVSSVFIFPPKPKDVLTITLTPKVTCVVVDISKDDPEVQFSWFVDDVEVHTAQTQPREEQFNSTFRSVSELPIMHQDWLNGKEFKCRVNSAAFPAPIEKTISKTKGRPKAPQVYTIPPPKEQMAKDKVSLTCMITDFFPEDITVEWQWNGQPAENYKNTQPIMNTNGSYFVYSKLNVQKSNWEAGNTFTCSVLHEGLHNHHTEKSLSHSPGK
light: not shown
notes: also called c13 mIgG1; 13-1
B3: Clone 13 (antibody, IgG1, V domains shown)
VH: QVQLVQSGAEVKKPGSSVKVSCKASGGTFSSYAISWVRQAPGQGLEWMGSIIPIFGTANYAQKFQGRVTITADESTSTAYMELSSLRSEDTAVYYCARGPSEVGAILGYVWFDPWGQGTLVTVSS
VL: not shown
notes: also called anti-TIGIT clone 13; c13 hIgG1
B4: Clone 16 (antibody, V domains shown)
VH: QVQLVQSGAEVKKPGSSVKVSCKASGGTFSSYAISWVRQAPGQGLEWMGGIIPIFGTASYAQKFQGRVTITADESTSTAYMELSSLRSEDTAVYYCARQSTWHKLYGTDVWGQGTTVTVSS
VL: DIQMTQSPSSVSASVGDRVTITCRASQGISSWLAWYQQKPGKAPKLLIYAASSLQSGVPSRFSGSGSGTDFTLTISSLQPEDFATYYCQQGDSLPPTFGGGTKVEIK
notes: Fully human IgG produced in yeast
B5: Clone 25 (antibody, V domains shown)
VH: QVQLVQSGAEVKKPGASVKVSCKASGYTFTSYAISWVRQAPGQGLEWMGWISAYNGNTNYAQKLQGRVTMTTDTSTSTAYMELRSLRSDDTAVYYCARDLSSFWSGDVLGAFDIWGQGTMVTVSS
VL: DIQMTQSPSSLSASVGDRVTITCRASQSISSYLNWYQQKPGKAPKLLIYAASSLQSGVPSRFSGSGSGTDFTLTISSLQPEDFATYYCQQSVPPRTFGGGTKVEIK
notes: Fully human IgG produced in yeast; also called anti-TIGIT clone 25
B6: Clone 2 (antibody, V domains shown)
VH: EVQLVESGGGLVQPGGSLRLSCAASGFTFSDHYMDWVRQAPGKGLEWVGRTRNKANSYTTEYAASVKGRFTISRDDSKNSLYLQMNSLKTEDTAVYYCARGQYYYGSSSRGYYYMDVWGQGTTVTVSS
VL: EIVLTQSPGTLSLSPGERATLSCRASQSVSSSYLAWYQQKPGQAPRLLIYGASSRATGIPDRFSGSGSGTDFTLTISRLEPEDFAVYYCQQAVPSPLTFGGGTKVEIK
notes: Fully human IgG produced in yeast; also called anti-TIGIT antibody clone 2
B7: Clone 54 (antibody, V domains shown)
VH: QVQLVQSGAEVKKPGASVKVSCKASGYTFTSYYMHWVRQAPGQGLEWMGIINPSGGSTSYAQKFQGRVTMTRDTSTSTVYMELSSLRSEDTAVYYCARASDSYGVGLYYGMDVWGQGTTVTVSS
VL: B6 VL with S30R, A92Y, V93Y, P94V
notes: as for B4

T5 sequence (chain, as listed by the source limits assumed): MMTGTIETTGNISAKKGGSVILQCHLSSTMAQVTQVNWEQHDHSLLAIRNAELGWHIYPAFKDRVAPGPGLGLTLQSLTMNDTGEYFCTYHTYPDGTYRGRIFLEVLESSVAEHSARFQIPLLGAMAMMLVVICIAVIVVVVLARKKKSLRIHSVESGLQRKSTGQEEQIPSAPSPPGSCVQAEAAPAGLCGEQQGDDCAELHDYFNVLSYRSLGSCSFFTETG

One assay has as its target T1, murine FcγRIV expressed on CHO cells. The assay is described as follows: flow cytometry on CHO cells expressing mCD16 (murine FcγRIV), anti-mouse IgG FITC.
Experimental: To assess the extent of altered FcγRIV binding, antibody affinity to FcγRIV expressed on CHO cells was determined by FACS using anti-mouse IgG FITC.
As to B1, binding was characterised by a dissociation constant (Kd) of 3330 nM.

The next assay addresses T5, cynomolgus monkey TIGIT expressed on cells (cynomolgus monkey).
T5 construct: HEK 293 cells stably expressing cynomolgus monkey TIGIT or cynomolgus T cells; also called Cyno TIGIT HEK
Kind of assay: flow cytometry titration, HEK 293 cells expressing cynomolgus TIGIT.
In the case of B2, the EC50 was 0.07 µg/mL.
Molecule B3 returned a concentration giving a half-maximal response (EC50) of 0.13 µg/mL.

In a further assay the target is T2, human TIGIT expressed on cells. The assay is described as follows: flow cytometry competition with hCD155-Fc-AlexaFluor647 on 293-hTIGIT cells; the axis 'Percent Blockade' falls as ligand signal is lost.
Experimental: (§1) Samples were analyzed on a CytoFLEX flow cytometer. Median fluorescence intensity of the FSC/SSC gated population was determined for each antibody concentration. Percent blockade was calculated relative to the MFI of the no antibody control. NonLinear regression of Log(X) transformed data was performed in GraphPad Prism 6.
B3: the “IC50 (read off the curve)” value was approximately 0.1 µg/mL.

The target is the same in another assay. The assay is described as follows: flow cytometry titration, HEK 293 cells expressing human TIGIT.
Consider B2, for which a half-maximal response (EC50) required 0.05 µg/mL.
B3 yielded an EC50 of 0.09 µg/mL.

For a further assay, the target named is T6, cyno TIGIT-Fc (cynomolgus monkey).
T6 construct: not shown: Fc part
T6 sequence (chain, as listed by the source limits assumed): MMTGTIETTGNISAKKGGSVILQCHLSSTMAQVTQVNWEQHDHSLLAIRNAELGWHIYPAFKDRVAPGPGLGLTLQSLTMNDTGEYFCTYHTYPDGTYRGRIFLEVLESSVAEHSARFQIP
The assay is described as follows: BLI (ForteBio), IgG on sensor, avid.
The molecule B4 showed a Kd of 4.67 nM.
The molecule B5 returned a dissociation constant (Kd) of 1.5 nM.
The same measure, in the same setting: as for B6, the figure is 1.34 nM; as for B3, 1.04 nM.

In a further assay the target is T2, human TIGIT expressed on cells. The assay is described as follows: flow cytometry on HEK 293 cells expressing the target, MFI over parental HEK 293.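 Note: bound antibody detected with PE-labelled anti-human IgG, 15 min on ice. FOB equals median fluorescence on TIGIT-positive cells divided by that on target-negative cells.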
Experimental: (§2) HEK 293 cells were engineered to stably express high levels of human, mouse or cynomolgus monkey TIGIT by lentiviral transduction. […] Cells were then washed twice with wash buffer and incubated with anti-human IgG conjugated to PE for 15 minutes on ice. Cells were then washed twice with wash buffer and analyzed by flow cytometry on a FACS Canto II instrument (BD Biosciences). Fold over background (FOB) was calculated as the median fluorescence intensity (MFI) of the anti-TIGIT clone bound to target-positive cells divided by the MFI of the anti-TIGIT clone bound to target-negative cells.
Take B4: the “FOB (Fold Over Background)” value was determined as 192 fold.
Consider B5, for which the “FOB (Fold Over Background)” value was found to be 205 fold.
On the same count and under the same terms, as for B6, the figure is 158 fold; as for B3, 212 fold.

The target of another assay is T5, cynomolgus monkey TIGIT expressed on …. Described as above.
Experimental: as §2
Take B4: the “FOB (Fold Over Background)” value came to 27 fold.
Still for that read-out and setting: as for B5, the figure is 247 fold.
Same read-out and setting: for B6 the value was 162 fold; for B3, 224 fold.

A further assay addresses T2, human TIGIT expressed on cells. The assay is described as follows: flow cytometry titration, HEK 293 cells expressing human TIGIT. The source holds these as a separate data set.
Experimental: (§3) HEK 293 cells were engineered to stably express high levels of human, mouse or cynomolgus monkey TIGIT by lentiviral transduction. […] Samples were analyzed on a CytoFLEX flow cytometer. Median fluorescence intensity of the FSC/SSC gated population was determined for each antibody concentration. NonLinear regression of Log(X) transformed data was used to generate EC50 values in GraphPad Prism 6.
In the case of B4, the EC50 is 0.07 µg/mL.
Still for that read-out and setting: for B5 the value was 0.14 µg/mL; for B6, 0.15 µg/mL.
Molecule B7 displayed an EC50 of 0.11 µg/mL.
Same read-out and setting: as for B3, the figure is 0.07 µg/mL.

A further assay has the same target. Kind of assay: flow cytometry competition with human CD112-Fc on 293-hTIGIT cells.
For B2, the “IC50 (read off the curve)” value was approximately 0.04 µg/mL.
On the same count and under the same terms, for B3 the value was approximately 0.1 µg/mL.

A further assay shares this target. Kind of assay: flow cytometry competition with human CD155-Fc on 293-hTIGIT cells.
As for B2, the “IC50 (read off the curve)” value is approximately 0.1 µg/mL.
The same measure, in the same setting: as for B3, the figure is approximately 0.1 µg/mL.

Another assay has as its target T5, cynomolgus monkey TIGIT expressed on …. Kind of assay: flow cytometry titration, HEK 293 cells expressing cynomolgus TIGIT. This is another data set of the same source.
Experimental: as §3
B4 had an EC50 of 0.1 µg/mL.
The same measure, in the same setting: as for B5, the figure is 0.19 µg/mL.
On the same count and under the same terms, for B6 the value was 0.32 µg/mL; for B7, 11.4 µg/mL; for B3, 0.1 µg/mL.

The target in the next assay is T3, monomeric human TIGIT (Sino Biological …). Kind of assay: BLI (ForteBio Octet RED384), IgG on AHQ sensor, 100 nM antigen, 1:1 model.
Experimental: (§4) Briefly, ForteBio affinity measurements were performed by loading IgGs on-line onto AHQ sensors. Sensors were equilibrated off-line in assay buffer for 30 minutes and then monitored on-line for 60 seconds for baseline establishment. Sensors with loaded IgGs were exposed to 100 nM antigen (dimeric Fc-fusion antigen or monomeric antigen) for 3 minutes, and afterwards were transferred to assay buffer for 3 minutes for off-rate measurement. All binding and dissociation kinetics were analyzed using the 1:1 binding model.
Take B4: the Kd was 2.06 nM.
Molecule B5 gave a Kd of 0.618 nM.
With B6, the Kd was 10.1 nM.
Turning to B7, the Kd is 3.49 nM.
Still for that read-out and setting: as for B3, the figure is 2.56 nM.

A further assay deals with T4, recombinant dimeric human TIGIT-Fc …. The assay is described as above.
Experimental: as §4
Regarding B4, the Kd was determined as 0.69 nM.
The same measure, in the same setting: as for B5, the figure is 0.62 nM.
The same measure, in the same setting: for B6 the value was 0.956 nM.
Same read-out and setting: for B7 the value was 0.689 nM; for B3, 0.543 nM.

Another assay addresses T3, monomeric human TIGIT (Sino Biological …). Kind of assay: BLI (ForteBio), IgG on sensor, monovalent.
Experimental: as §4
The optimized antibodies were also tested for ligand blocking in a CD155 ligand competition assay, and for binding to human TIGIT HEK, cyno TIGIT HEK, mouse TIGIT HEK, and parental HEK cell lines, as described above.
B4 gave a Kd of 2.52 nM.
B5 registered a Kd of 1.27 nM.
B6 had a Kd of 8.18 nM.
For B3, the Kd was 2.63 nM.

The next assay concerns the target T2, human TIGIT expressed on cells. Kind of assay: flow cytometry competition with hCD112-Fc-AlexaFluor647 on 293-hTIGIT cells; the axis 'Percent Blockade' falls as ligand signal is lost.
Experimental: as §1
On to B3, for which the “IC50 (read off the curve)” value was approximately 0.1 µg/mL.
